Reference: US20190263889A1
Several values for one entry are separate records, joined by “and”; a condition that tells them apart may be missing. Equal entries are not always repeated.

Assays:
[1] = molecular target: CTLA-4Fc mutant protein M2 (human (murine residues substituted)); assay: ELISA; binder 10 ng/ml on coated target
[2] = molecular target: CTLA-4Fc mutant protein M8 (human (murine residues substituted)); assay: ELISA; binder 10 ng/ml on coated target
[3] = molecular target: CTLA-4Fc mutant protein M5 (human (murine residues substituted)); assay: ELISA; binder 10 ng/ml on coated target
Sequence of CTLA-4Fc mutant protein M5 (human (murine residues substituted)) (chain, as listed by the source mutant): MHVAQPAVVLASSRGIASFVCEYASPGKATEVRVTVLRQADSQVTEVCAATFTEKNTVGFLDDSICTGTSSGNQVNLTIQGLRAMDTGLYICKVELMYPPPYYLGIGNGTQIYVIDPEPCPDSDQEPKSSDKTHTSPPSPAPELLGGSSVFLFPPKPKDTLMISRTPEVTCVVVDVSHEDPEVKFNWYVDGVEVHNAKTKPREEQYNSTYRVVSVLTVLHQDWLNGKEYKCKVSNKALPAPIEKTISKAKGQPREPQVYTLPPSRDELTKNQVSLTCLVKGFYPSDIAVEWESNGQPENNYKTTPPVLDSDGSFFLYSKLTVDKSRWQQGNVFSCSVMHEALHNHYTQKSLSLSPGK

[4] = molecular target: CTLA-4Fc mutant protein M1 (human (murine residues substituted)); assay: ELISA; binder 10 ng/ml on coated target
Sequence of CTLA-4Fc mutant protein M1 (human (murine residues substituted)) (chain, as listed by the source mutant): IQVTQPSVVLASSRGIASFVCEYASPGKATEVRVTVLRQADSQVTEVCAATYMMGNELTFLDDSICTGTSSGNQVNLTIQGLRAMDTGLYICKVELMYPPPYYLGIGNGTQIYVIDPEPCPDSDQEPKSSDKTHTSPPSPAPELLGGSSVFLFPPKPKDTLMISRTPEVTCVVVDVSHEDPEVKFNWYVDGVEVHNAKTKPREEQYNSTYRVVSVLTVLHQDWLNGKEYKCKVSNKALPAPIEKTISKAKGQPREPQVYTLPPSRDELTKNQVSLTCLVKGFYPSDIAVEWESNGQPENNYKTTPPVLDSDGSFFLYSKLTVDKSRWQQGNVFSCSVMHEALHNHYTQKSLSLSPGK

[5] = molecular target: CTLA-4Fc mutant protein M9 (human (murine residues substituted)); assay: ELISA; binder 10 ng/ml on coated target
Sequence of CTLA-4Fc mutant protein M9 (human (murine residues substituted)) (chain, as listed by the source mutant): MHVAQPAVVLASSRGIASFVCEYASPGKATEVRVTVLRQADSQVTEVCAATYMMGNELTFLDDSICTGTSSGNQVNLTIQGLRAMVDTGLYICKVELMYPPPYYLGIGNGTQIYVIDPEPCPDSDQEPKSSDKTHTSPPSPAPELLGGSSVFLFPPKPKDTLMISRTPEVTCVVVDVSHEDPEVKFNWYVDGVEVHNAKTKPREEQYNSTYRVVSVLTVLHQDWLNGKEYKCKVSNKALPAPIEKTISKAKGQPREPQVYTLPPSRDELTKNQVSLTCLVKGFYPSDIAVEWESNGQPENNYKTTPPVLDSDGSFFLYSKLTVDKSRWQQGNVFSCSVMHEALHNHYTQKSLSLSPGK

[6] = molecular target: wild type human CTLA-4Fc fusion protein (abatacept) (human); assay: ELISA; binder 10 ng/ml on coated target
Sequence of wild type human CTLA-4Fc fusion protein (abatacept) (human) (chain, as listed by the source limits assumed): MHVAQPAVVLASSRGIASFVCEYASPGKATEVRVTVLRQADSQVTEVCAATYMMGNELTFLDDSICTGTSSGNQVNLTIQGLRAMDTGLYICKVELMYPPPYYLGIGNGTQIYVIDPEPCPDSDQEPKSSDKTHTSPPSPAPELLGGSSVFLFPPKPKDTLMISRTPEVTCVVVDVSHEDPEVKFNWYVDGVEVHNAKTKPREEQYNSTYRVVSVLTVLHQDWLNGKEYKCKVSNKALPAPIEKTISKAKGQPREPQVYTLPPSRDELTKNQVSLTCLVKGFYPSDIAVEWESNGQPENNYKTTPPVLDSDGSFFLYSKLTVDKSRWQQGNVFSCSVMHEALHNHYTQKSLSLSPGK

[7] = molecular target: CTLA-4Fc mutant protein M7 (human (murine residues substituted)); assay: ELISA; binder 10 ng/ml on coated target
Sequence of CTLA-4Fc mutant protein M7 (human (murine residues substituted)) (chain, as listed by the source mutant): as the sequence (chain, as listed by the source limits assumed) above, with D63Y, S64P, I65F, T67S counted along it

[8] = molecular target: CTLA-4Fc mutant protein M10 (human (murine residues substituted)); assay: ELISA; binder 10 ng/ml on coated target
Sequence of CTLA-4Fc mutant protein M10 (human (murine residues substituted)) (chain, as listed by the source mutant): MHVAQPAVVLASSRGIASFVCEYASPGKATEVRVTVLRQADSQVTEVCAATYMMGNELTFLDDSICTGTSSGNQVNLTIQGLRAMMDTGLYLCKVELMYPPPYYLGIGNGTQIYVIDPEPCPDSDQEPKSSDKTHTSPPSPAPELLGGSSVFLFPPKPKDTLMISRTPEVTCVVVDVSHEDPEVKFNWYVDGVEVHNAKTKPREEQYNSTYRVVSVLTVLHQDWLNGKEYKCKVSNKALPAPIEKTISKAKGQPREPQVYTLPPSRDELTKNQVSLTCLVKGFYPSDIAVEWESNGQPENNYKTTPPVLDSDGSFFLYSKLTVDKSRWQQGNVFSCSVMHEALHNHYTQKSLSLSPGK

[9] = molecular target: CTLA-4Fc mutant protein M2 (human (murine residues substituted)); assay: ELISA; binder 1 ug/ml on coated target
[10] = molecular target: CTLA-4Fc mutant protein M8 (human (murine residues substituted)); assay: ELISA; binder 1 ug/ml on coated target
[11] = molecular target: CTLA-4Fc mutant protein M4 (human (murine residues substituted)); assay: ELISA; binder 1 ug/ml on coated target
Sequence of CTLA-4Fc mutant protein M4 (human (murine residues substituted)) (chain, as listed by the source mutant): as the sequence (chain, as listed by the source limits assumed) above, with Q39T, A40N, S42Q, Q43M counted along it

[12] = molecular target: CTLA-4Fc mutant protein M5 (human (murine residues substituted)); assay: ELISA; binder 1 ug/ml on coated target
[13] = molecular target: CTLA-4Fc mutant protein M1 (human (murine residues substituted)); assay: ELISA; binder 1 ug/ml on coated target
[14] = molecular target: CTLA-4Fc mutant protein M9 (human (murine residues substituted)); assay: ELISA; binder 1 ug/ml on coated target
[15] = molecular target: CTLA-4Fc mutant protein M6 (human (murine residues substituted)); assay: ELISA; binder 1 ug/ml on coated target
Sequence of CTLA-4Fc mutant protein M6 (human (murine residues substituted)) (chain, as listed by the source mutant): as the sequence (chain, as listed by the source limits assumed) above, with A50T counted along it

[16] = molecular target: wild type human CTLA-4Fc fusion protein (abatacept) (human); assay: ELISA; binder 1 ug/ml on coated target
[17] = molecular target: CTLA-4Fc mutant protein M7 (human (murine residues substituted)); assay: ELISA; binder 1 ug/ml on coated target
[18] = molecular target: CTLA-4Fc mutant protein M10 (human (murine residues substituted)); assay: ELISA; binder 1 ug/ml on coated target
[19] = molecular target: CTLA-4Fc mutant protein M11 (human (murine residues substituted)); assay: ELISA; binder 1 ug/ml on coated target
Sequence of CTLA-4Fc mutant protein M11 (human (murine residues substituted)) (chain, as listed by the source mutant): as the sequence (chain, as listed by the source limits assumed) above, with Y103F, L104V, I106M counted along it

[20] = molecular target: CTLA-4Fc mutant protein M3 (human (murine residues substituted)); assay: ELISA; binder 1 ug/ml on coated target
Sequence of CTLA-4Fc mutant protein M3 (human (murine residues substituted)) (chain, as listed by the source mutant): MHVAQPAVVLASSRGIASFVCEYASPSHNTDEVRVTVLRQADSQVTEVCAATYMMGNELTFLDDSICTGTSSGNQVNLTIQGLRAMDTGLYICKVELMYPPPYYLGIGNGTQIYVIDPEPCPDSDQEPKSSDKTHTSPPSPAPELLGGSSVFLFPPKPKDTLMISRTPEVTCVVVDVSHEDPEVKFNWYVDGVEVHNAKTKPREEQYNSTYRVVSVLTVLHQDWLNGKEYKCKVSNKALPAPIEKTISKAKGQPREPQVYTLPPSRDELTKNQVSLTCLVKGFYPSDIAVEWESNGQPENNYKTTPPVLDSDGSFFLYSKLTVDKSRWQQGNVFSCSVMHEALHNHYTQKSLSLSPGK

Sequence of CTLA-4Fc mutant protein M8 (human (murine residues substituted)) (chain, as listed by the source mutant): as the sequence (chain, as listed by the source limits assumed) above, with S70F, S71N, G72E, N73S, Q74R counted along it
Sequence of CTLA-4Fc mutant protein M2 (human (murine residues substituted)) (chain, as listed by the source mutant): as the sequence (chain, as listed by the source limits assumed) above, with R14H, I16L, V20P counted along it

chimeric L3D10 anti-human CTLA-4 antibody
OD450 [1]: 0.375 OD450 and 0.317 OD450 | OD450 [2]: 1.23 OD450 and 1.24 OD450 | OD450 [3]: 1.54 OD450 and 1.37 OD450 | OD450 [4]: 2.47 OD450 and 2.43 OD450 | OD450 [5]: 0.18 OD450 and 0.171 OD450 | OD450 [6]: 1.43 OD450 and 1.52 OD450 | OD450 [7]: 0.714 OD450 and 0.738 OD450 | OD450 [8]: 0.18 OD450 and 0.169 OD450 | OD450 [9]: 2.39 OD450 and 2.62 OD450 | OD450 [10]: 3.14 OD450 and 3.03 OD450 | OD450 [11]: 2.65 OD450 and 2.66 OD450 | OD450 [12]: 3.02 OD450 and 3.03 OD450 | OD450 [13]: 3.27 OD450 and 2.97 OD450 | OD450 [14]: 0.916 OD450 | OD450 [15]: 3.09 OD450 and 3.07 OD450 | OD450 [16]: 3.37 OD450 and 3.11 OD450 | OD450 [17]: 3.15 OD450 and 2.99 OD450 | OD450 [18]: 0.804 OD450 and 0.868 OD450 | OD450 [19]: 2.84 OD450 and 2.98 OD450 | OD450 [20]: 3.18 OD450 and 3.12 OD450
